# Experimental data taken from IntAct's records for PubMed 31515488.
# B1: Cancer/testis antigen 2 (Homo sapiens), O75638 (parent)
# chain: MQAEGRGTGGSTGDADGPGGPGIPDGPGGNAGGPGEAGATGGRGPRGAGAARASGPRGGAPRGPHGGAASAQDGRCPCGARRPDSRLLELHITMPFSSPMEAELVRRILSRDAAPLPRPGAVLKDFTVSGNLLFMSVRDQDREGAGRMRVVGWGLGSASPEGQKARDLRTPKHKVSEQRPGTPGPPPPEGAQGDGCRGVAFNVMFSAPHI
# B2: E3 ubiquitin-protein ligase TRIM39 (Homo sapiens), Q9HCM9 (parent)
# chain: MAETSLLEAGASAASTAAALENLQVEASCSVCLEYLKEPVIIECGHNFCKACITRWWEDLERDFPCPVCRKTSRYRSLRPNRQLGSMVEIAKQLQAVKRKIRDESLCPQHHEALSLFCYEDQEAVCLICAISHTHRAHTVVPLDDATQEYKEKLQKCLEPLEQKLQEITRCKSSEEKKPGELKRLVESRRQQILREFEELHRRLDEEQQVLLSRLEEEEQDILQRLRENAAHLGDKRRDLAHLAAEVEGKCLQSGFEMLKDVKSTLEKNIPRKFGGSLSTICPRDHKALLGLVKEINRCEKVKTMEVTSVSIELEKNFSNFPRQYFALRKILKQLIADVTLDPETAHPNLVLSEDRKSVKFVETRLRDLPDTPRRFTFYPCVLATEGFTSGRHYWEVEVGDKTHWAVGVCRDSVSRKGELTPLPETGYWRVRLWNGDKYAATTTPFTPLHIKVKPKRVGIFLDYEAGTLSFYNVTDRSHIYTFTDTFTEKLWPLFYPGIRAGRKNAAPLTIRPPTDWE
# B3: Cyclin-D1-binding protein 1 (Homo sapiens), O95273 (parent)
# chain: MASATAPAAAVPTLASPLEQLRHLAEELRLLLPRVRVGEAQETTEEFNREMFWRRLNEAAVTVSREATTLTIVFSQLPLPSPQETQKFCEQVHAAIKAFIAVYYLLPKDQGITLRKLVRGATLDIVDGMAQLMEVLSVTPTQSPENNDLISYNSVWVACQQMPQIPRDNKAAALLMLTKNVDFVKDAHEEMEQAVEECDPYSGLLNDTEENNSDNHNHEDDVLGFPSNQDLYWSEDDQELIIPCLALVRASKACLKKIRMLVAENGKKDQVAQLDDIVDISDEISPSVDDLALSIYPPMCHLTVRINSAKLVSVLKKALEITKASHVTPQPEDSWIPLLINAIDHCMNRIKELTQSELEL
# Variants of: B1
# Details: with ubql1_human UBQLN1, Q9UMX0
row,effect of a mutation on the interaction,Variant
1,with no effect,A80T

# Variants of: B1
# Details: with trip6_human TRIP6, Q15654
row,effect of a mutation on the interaction,Variant
1,with no effect,A80T

# Variants of: B2
# Details: with znf26_human ZNF26, P17031
# Sequence of znf26_human ZNF26, P17031 (P17031 whole entry): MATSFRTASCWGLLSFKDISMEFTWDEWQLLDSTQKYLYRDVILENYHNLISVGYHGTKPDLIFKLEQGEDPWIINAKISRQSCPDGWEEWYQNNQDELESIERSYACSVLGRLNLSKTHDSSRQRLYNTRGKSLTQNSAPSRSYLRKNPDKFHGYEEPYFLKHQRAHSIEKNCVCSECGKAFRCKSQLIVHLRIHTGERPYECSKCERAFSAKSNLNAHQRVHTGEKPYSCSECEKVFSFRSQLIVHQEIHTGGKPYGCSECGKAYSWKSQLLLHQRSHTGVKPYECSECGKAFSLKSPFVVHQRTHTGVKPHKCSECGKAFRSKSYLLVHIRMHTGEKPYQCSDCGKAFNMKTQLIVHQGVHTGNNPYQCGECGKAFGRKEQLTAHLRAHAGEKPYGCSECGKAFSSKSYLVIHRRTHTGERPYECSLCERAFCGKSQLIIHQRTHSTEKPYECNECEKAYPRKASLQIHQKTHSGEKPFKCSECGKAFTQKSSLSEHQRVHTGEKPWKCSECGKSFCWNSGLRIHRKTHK
row,effect of a mutation on the interaction,Variant
1,disrupting interaction strength,L194S

# Variants of: B2
# Details: with ccnc_human CCNC
row,effect of a mutation on the interaction,Variant
1,disrupting interaction strength,L194S

# Variants of: B2
# Details: with if4a2_human EIF4A2, Q14240
# Sequence of if4a2_human EIF4A2, Q14240 (Q14240 whole entry): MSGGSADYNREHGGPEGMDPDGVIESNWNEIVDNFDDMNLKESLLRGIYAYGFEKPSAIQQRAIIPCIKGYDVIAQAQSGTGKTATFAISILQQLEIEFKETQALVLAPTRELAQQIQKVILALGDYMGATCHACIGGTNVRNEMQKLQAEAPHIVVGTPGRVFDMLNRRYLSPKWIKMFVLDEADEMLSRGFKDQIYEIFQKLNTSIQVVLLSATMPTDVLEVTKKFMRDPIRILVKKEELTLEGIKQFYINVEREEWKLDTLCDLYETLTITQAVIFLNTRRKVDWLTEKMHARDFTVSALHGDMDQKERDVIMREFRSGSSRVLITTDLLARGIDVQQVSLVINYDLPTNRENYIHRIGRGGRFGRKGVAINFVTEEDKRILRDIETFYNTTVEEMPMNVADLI
row,effect of a mutation on the interaction,Variant
1,disrupting interaction strength,L194S

# Variants of: B2
# Details: with ub2e2_human UBE2E2, Q96LR5
row,effect of a mutation on the interaction,Variant
1,disrupting interaction strength,L194S

# Variants of: B2
# Details: with ub2d3_human UBE2D3, P61077
# Sequence of ub2d3_human UBE2D3, P61077 (P61077 whole entry): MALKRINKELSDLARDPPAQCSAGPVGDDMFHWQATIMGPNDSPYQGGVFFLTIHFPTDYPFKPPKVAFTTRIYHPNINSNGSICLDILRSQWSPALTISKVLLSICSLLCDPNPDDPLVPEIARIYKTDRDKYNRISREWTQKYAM
row,effect of a mutation on the interaction,Variant
1,disrupting interaction strength,L194S

# Variants of: B3
# Details: with ezh1_human EZH1, Q92800
# Sequence of ezh1_human EZH1, Q92800 (Q92800 whole entry): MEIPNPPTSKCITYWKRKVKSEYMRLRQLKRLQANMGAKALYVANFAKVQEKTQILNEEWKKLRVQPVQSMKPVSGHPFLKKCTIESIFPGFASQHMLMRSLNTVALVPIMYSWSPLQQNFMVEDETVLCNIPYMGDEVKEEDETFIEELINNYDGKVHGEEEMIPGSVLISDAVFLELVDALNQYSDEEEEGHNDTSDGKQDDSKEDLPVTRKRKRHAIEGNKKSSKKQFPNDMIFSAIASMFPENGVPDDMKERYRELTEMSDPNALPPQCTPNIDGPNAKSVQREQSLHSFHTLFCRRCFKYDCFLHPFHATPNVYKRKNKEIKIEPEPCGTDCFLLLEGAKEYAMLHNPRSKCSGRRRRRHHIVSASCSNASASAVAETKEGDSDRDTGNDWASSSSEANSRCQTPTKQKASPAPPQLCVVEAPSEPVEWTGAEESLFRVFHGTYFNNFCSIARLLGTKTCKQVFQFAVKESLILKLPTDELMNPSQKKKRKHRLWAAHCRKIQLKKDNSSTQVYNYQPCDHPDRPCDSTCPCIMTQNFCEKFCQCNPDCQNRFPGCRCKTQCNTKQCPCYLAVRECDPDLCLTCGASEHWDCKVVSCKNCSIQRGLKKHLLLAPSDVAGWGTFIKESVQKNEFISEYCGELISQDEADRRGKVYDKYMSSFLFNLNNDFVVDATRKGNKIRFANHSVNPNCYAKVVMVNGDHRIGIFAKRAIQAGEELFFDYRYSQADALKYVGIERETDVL
row,effect of a mutation on the interaction,Variant
1,disrupting interaction strength,I277T

# Variants of: B3
# Details: with pex39_human PEX39, Q5I0X4
# Sequence of pex39_human PEX39, Q5I0X4 (Q5I0X4 whole entry): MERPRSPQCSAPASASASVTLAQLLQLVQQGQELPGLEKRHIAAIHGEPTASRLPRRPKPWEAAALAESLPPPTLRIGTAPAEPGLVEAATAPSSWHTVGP
row,effect of a mutation on the interaction,Variant
1,disrupting interaction strength,I277T

# Variants of: B3
# Details: with evg1_human C22orf23, Q9BZE7
# Sequence of evg1_human C22orf23, Q9BZE7 (Q9BZE7 whole entry): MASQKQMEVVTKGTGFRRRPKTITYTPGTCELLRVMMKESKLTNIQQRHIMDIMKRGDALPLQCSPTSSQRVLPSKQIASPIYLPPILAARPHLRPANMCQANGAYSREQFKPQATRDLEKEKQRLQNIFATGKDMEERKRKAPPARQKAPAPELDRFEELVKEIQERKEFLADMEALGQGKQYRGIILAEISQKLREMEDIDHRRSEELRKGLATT
row,effect of a mutation on the interaction,Variant
1,disrupting interaction strength,I277T

# Variants of: B3
# Details: with map7_human MAP7, Q14244
row,effect of a mutation on the interaction,Variant
1,disrupting interaction strength,I277T

# Variants of: B3
# Details: with myp2_human PMP2, P02689
row,effect of a mutation on the interaction,Variant
1,disrupting interaction strength,I277T

# Variants of: B3
# Details: with rl39l_human RPL39L
row,effect of a mutation on the interaction,Variant
1,disrupting interaction strength,I277T

# Variants of: B3
# Details: with zn707_human ZNF707, Q96C28
# Sequence of zn707_human ZNF707, Q96C28 (Q96C28 whole entry): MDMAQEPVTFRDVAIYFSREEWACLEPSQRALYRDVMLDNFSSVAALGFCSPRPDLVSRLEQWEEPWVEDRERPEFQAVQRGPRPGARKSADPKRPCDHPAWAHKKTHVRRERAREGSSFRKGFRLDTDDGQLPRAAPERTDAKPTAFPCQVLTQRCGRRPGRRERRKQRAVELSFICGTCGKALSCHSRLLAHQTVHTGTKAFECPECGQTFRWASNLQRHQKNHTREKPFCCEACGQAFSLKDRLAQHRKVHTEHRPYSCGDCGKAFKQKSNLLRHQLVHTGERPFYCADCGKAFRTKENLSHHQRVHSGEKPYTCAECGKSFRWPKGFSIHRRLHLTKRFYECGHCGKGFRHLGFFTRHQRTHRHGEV
row,effect of a mutation on the interaction,Variant
1,disrupting interaction strength,I277T

# Variants of: B3
# Details: with bmp7_human BMP7, P18075
# Sequence of bmp7_human BMP7, P18075 (P18075 whole entry): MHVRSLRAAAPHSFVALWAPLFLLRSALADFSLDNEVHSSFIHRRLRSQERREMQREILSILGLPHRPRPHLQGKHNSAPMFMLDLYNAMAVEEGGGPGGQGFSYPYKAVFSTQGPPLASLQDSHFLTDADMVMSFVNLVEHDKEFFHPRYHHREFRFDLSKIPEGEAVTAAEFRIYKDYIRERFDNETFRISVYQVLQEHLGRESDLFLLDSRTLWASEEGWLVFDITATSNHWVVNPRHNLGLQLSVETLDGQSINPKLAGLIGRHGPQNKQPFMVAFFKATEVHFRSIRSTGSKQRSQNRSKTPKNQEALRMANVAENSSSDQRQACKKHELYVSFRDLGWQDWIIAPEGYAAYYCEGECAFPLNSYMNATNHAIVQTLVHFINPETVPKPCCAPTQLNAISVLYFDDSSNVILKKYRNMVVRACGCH
row,effect of a mutation on the interaction,Variant
1,disrupting interaction strength,I277T

# Variants of: B3
# Details: with zn136_human ZNF136, P52737
row,effect of a mutation on the interaction,Variant
1,disrupting interaction strength,I277T

# Variants of: B3
# Details: with cul5_human CUL5, Q93034
# Sequence of cul5_human CUL5, Q93034 (Q93034 whole entry): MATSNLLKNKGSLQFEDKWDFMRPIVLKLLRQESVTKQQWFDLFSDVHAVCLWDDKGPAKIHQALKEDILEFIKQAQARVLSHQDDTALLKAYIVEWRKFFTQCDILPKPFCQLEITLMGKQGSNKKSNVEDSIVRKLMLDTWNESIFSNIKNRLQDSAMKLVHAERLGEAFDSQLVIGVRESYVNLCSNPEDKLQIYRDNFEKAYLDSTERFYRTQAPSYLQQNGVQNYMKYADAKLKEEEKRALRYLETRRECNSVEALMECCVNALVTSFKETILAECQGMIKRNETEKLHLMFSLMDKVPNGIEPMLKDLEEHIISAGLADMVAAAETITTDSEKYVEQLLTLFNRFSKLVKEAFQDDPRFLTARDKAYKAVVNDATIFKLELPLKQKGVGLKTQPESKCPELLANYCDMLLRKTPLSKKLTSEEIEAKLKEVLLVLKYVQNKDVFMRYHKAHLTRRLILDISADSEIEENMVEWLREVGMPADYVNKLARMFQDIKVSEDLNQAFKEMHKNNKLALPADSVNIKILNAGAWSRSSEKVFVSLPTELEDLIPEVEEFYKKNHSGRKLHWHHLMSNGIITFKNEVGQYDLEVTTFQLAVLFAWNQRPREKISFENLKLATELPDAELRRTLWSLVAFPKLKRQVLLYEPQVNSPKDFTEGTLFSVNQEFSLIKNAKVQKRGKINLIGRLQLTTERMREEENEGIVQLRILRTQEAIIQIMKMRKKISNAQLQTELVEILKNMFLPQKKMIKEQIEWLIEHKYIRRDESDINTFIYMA
row,effect of a mutation on the interaction,Variant
1,disrupting interaction strength,I277T

# Variants of: B3
# Details: with zn555_human ZNF555, Q8NEP9
row,effect of a mutation on the interaction,Variant
1,disrupting interaction strength,I277T

# Variants of: B3
# Details: with ilf2_human ILF2, Q12905
# Sequence of ilf2_human ILF2, Q12905 (Q12905 whole entry): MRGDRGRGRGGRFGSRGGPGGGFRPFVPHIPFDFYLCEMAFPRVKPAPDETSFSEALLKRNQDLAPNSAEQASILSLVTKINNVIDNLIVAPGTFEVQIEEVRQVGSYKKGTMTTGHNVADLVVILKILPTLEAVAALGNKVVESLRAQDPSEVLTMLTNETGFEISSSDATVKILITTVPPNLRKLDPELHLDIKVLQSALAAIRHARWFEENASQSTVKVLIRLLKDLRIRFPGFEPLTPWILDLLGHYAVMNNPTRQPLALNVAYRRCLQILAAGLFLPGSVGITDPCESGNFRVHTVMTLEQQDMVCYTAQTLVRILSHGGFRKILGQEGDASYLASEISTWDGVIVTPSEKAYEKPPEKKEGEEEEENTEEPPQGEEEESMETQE
row,effect of a mutation on the interaction,Variant
1,disrupting interaction strength,I277T

# Variants of: B3
# Details: with tnnt1_human TNNT1, P13805
# Sequence of tnnt1_human TNNT1, P13805 (P13805 whole entry): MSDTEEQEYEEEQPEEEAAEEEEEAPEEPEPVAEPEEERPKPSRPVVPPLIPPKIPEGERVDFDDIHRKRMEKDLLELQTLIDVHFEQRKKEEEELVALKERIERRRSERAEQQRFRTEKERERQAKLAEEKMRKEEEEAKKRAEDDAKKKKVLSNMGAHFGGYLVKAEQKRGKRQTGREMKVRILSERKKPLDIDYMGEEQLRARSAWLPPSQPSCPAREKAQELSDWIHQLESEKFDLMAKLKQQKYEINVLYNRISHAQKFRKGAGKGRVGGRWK
row,effect of a mutation on the interaction,Variant
1,disrupting interaction strength,I277T

# Variants of: B3
# Details: with nano2_human NANOS2, P60321
# Sequence of nano2_human NANOS2, P60321 (P60321 whole entry): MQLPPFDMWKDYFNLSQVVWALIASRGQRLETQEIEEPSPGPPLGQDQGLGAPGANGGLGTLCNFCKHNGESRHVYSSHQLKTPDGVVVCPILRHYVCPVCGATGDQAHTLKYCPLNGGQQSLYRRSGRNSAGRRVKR
row,effect of a mutation on the interaction,Variant
1,disrupting interaction strength,I277T

# Variants of: B3
# Details: with tha10_human THAP10, Q9P2Z0
# Sequence of tha10_human THAP10, Q9P2Z0 (Q9P2Z0 whole entry): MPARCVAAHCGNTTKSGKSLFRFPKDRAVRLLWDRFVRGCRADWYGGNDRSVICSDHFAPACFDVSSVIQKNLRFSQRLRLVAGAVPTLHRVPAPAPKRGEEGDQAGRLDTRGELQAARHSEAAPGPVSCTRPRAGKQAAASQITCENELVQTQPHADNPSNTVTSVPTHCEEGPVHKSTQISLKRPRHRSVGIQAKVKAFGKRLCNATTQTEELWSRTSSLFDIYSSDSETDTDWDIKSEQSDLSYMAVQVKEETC
row,effect of a mutation on the interaction,Variant
1,disrupting interaction strength,I277T

# Variants of: B3
# Details: with tppc5_human TRAPPC5, Q8IUR0
row,effect of a mutation on the interaction,Variant
1,disrupting interaction strength,I277T
